In the Human Domainome abundance scans (Beltran et al. 2025):
± gives the uncertainty stated by the source.

B1: POU domain, class 3, transcription factor 1, residues 247 to 324; numbered along this chain, Q03052 (parent)
chain: EDAPSSDDLEQFAKQFKQRRIKLGFTQADVGLALGTLYGNVFSQTTICRFEALQLSFKNMCKLKPLLNKWLEETDSSS

Variants of: B1
Assay: abundance fitness (aPCA) (normalised: wild type 0, dead -1); higher = more abundant; growth selection in yeast, the domain comes from the species named
Settings: Homo sapiens

Variant	abundance fitness
EDAPSSTDLEQFAKQFKQRRIKLGFTQADVGLALGTLYGNVFSQTTICRFEALQLSFKNMCKLKPLLNKWLEETDSSS [D7T]	-0.073 ± 0.11
EDAPSSMDLEQFAKQFKQRRIKLGFTQADVGLALGTLYGNVFSQTTICRFEALQLSFKNMCKLKPLLNKWLEETDSSS [D7M]	-0.153 ± 0.1
EDAPSSKDLEQFAKQFKQRRIKLGFTQADVGLALGTLYGNVFSQTTICRFEALQLSFKNMCKLKPLLNKWLEETDSSS [D7K]	0.358 ± 0.14
EDAPSSQDLEQFAKQFKQRRIKLGFTQADVGLALGTLYGNVFSQTTICRFEALQLSFKNMCKLKPLLNKWLEETDSSS [D7Q]	-0.138 ± 0.15
EDAPSSHDLEQFAKQFKQRRIKLGFTQADVGLALGTLYGNVFSQTTICRFEALQLSFKNMCKLKPLLNKWLEETDSSS [D7H]	-0.361 ± 0.37
EDAPSSEDLEQFAKQFKQRRIKLGFTQADVGLALGTLYGNVFSQTTICRFEALQLSFKNMCKLKPLLNKWLEETDSSS [D7E]	0.089 ± 0.08
EDAPSSSDLEQFAKQFKQRRIKLGFTQADVGLALGTLYGNVFSQTTICRFEALQLSFKNMCKLKPLLNKWLEETDSSS [D7S]	-0.477 ± 0.13
EDAPSSVDLEQFAKQFKQRRIKLGFTQADVGLALGTLYGNVFSQTTICRFEALQLSFKNMCKLKPLLNKWLEETDSSS [D7V]	-0.181 ± 0.071
EDAPSSCDLEQFAKQFKQRRIKLGFTQADVGLALGTLYGNVFSQTTICRFEALQLSFKNMCKLKPLLNKWLEETDSSS [D7C]	-0.316 ± 0.15
EDAPSSGDLEQFAKQFKQRRIKLGFTQADVGLALGTLYGNVFSQTTICRFEALQLSFKNMCKLKPLLNKWLEETDSSS [D7G]	-0.045 ± 0.057
EDAPSSFDLEQFAKQFKQRRIKLGFTQADVGLALGTLYGNVFSQTTICRFEALQLSFKNMCKLKPLLNKWLEETDSSS [D7F]	-0.616 ± 0.22
EDAPSSYDLEQFAKQFKQRRIKLGFTQADVGLALGTLYGNVFSQTTICRFEALQLSFKNMCKLKPLLNKWLEETDSSS [D7Y]	0.101 ± 0.12
EDAPSSWDLEQFAKQFKQRRIKLGFTQADVGLALGTLYGNVFSQTTICRFEALQLSFKNMCKLKPLLNKWLEETDSSS [D7W]	-0.427 ± 0.11
EDAPSSRDLEQFAKQFKQRRIKLGFTQADVGLALGTLYGNVFSQTTICRFEALQLSFKNMCKLKPLLNKWLEETDSSS [D7R]	-0.085 ± 0.058
EDAPSSPDLEQFAKQFKQRRIKLGFTQADVGLALGTLYGNVFSQTTICRFEALQLSFKNMCKLKPLLNKWLEETDSSS [D7P]	-0.642 ± 0.23
EDAPSSNDLEQFAKQFKQRRIKLGFTQADVGLALGTLYGNVFSQTTICRFEALQLSFKNMCKLKPLLNKWLEETDSSS [D7N]	-0.305 ± 0.36
EDAPSSADLEQFAKQFKQRRIKLGFTQADVGLALGTLYGNVFSQTTICRFEALQLSFKNMCKLKPLLNKWLEETDSSS [D7A]	-0.142 ± 0.081
EDAISSDDLEQFAKQFKQRRIKLGFTQADVGLALGTLYGNVFSQTTICRFEALQLSFKNMCKLKPLLNKWLEETDSSS [P4I]	0.13 ± 0.16
EDAYSSDDLEQFAKQFKQRRIKLGFTQADVGLALGTLYGNVFSQTTICRFEALQLSFKNMCKLKPLLNKWLEETDSSS [P4Y]	0.169 ± 0.26
EDAMSSDDLEQFAKQFKQRRIKLGFTQADVGLALGTLYGNVFSQTTICRFEALQLSFKNMCKLKPLLNKWLEETDSSS [P4M]	0.032 ± 0.081
EDAKSSDDLEQFAKQFKQRRIKLGFTQADVGLALGTLYGNVFSQTTICRFEALQLSFKNMCKLKPLLNKWLEETDSSS [P4K]	-0.114 ± 0.091
EDAWSSDDLEQFAKQFKQRRIKLGFTQADVGLALGTLYGNVFSQTTICRFEALQLSFKNMCKLKPLLNKWLEETDSSS [P4W]	0.066 ± 0.062
EDARSSDDLEQFAKQFKQRRIKLGFTQADVGLALGTLYGNVFSQTTICRFEALQLSFKNMCKLKPLLNKWLEETDSSS [P4R]	-0.229 ± 0.056
EDAQSSDDLEQFAKQFKQRRIKLGFTQADVGLALGTLYGNVFSQTTICRFEALQLSFKNMCKLKPLLNKWLEETDSSS [P4Q]	-0.24 ± 0.16

Variant	abundance fitness
EDALSSDDLEQFAKQFKQRRIKLGFTQADVGLALGTLYGNVFSQTTICRFEALQLSFKNMCKLKPLLNKWLEETDSSS [P4L]	-0.031 ± 0.061
EDATSSDDLEQFAKQFKQRRIKLGFTQADVGLALGTLYGNVFSQTTICRFEALQLSFKNMCKLKPLLNKWLEETDSSS [P4T]	0.019 ± 0.083
EDAHSSDDLEQFAKQFKQRRIKLGFTQADVGLALGTLYGNVFSQTTICRFEALQLSFKNMCKLKPLLNKWLEETDSSS [P4H]	0.002 ± 0.22
EDANSSDDLEQFAKQFKQRRIKLGFTQADVGLALGTLYGNVFSQTTICRFEALQLSFKNMCKLKPLLNKWLEETDSSS [P4N]	-0.403 ± 0.23
EDAPWSDDLEQFAKQFKQRRIKLGFTQADVGLALGTLYGNVFSQTTICRFEALQLSFKNMCKLKPLLNKWLEETDSSS [S5W]	-0.206 ± 0.08
EDAPHSDDLEQFAKQFKQRRIKLGFTQADVGLALGTLYGNVFSQTTICRFEALQLSFKNMCKLKPLLNKWLEETDSSS [S5H]	0.283 ± 0.1
EDAPYSDDLEQFAKQFKQRRIKLGFTQADVGLALGTLYGNVFSQTTICRFEALQLSFKNMCKLKPLLNKWLEETDSSS [S5Y]	-0.062 ± 0.15
EDAPTSDDLEQFAKQFKQRRIKLGFTQADVGLALGTLYGNVFSQTTICRFEALQLSFKNMCKLKPLLNKWLEETDSSS [S5T]	0.09 ± 0.081
EDAPLSDDLEQFAKQFKQRRIKLGFTQADVGLALGTLYGNVFSQTTICRFEALQLSFKNMCKLKPLLNKWLEETDSSS [S5L]	0.129 ± 0.051
EDAPQSDDLEQFAKQFKQRRIKLGFTQADVGLALGTLYGNVFSQTTICRFEALQLSFKNMCKLKPLLNKWLEETDSSS [S5Q]	0.042 ± 0.097
EDAPDSDDLEQFAKQFKQRRIKLGFTQADVGLALGTLYGNVFSQTTICRFEALQLSFKNMCKLKPLLNKWLEETDSSS [S5D]	0.388 ± 0.087
EDAPNSDDLEQFAKQFKQRRIKLGFTQADVGLALGTLYGNVFSQTTICRFEALQLSFKNMCKLKPLLNKWLEETDSSS [S5N]	0.119 ± 0.13
EDAPVSDDLEQFAKQFKQRRIKLGFTQADVGLALGTLYGNVFSQTTICRFEALQLSFKNMCKLKPLLNKWLEETDSSS [S5V]	0.045 ± 0.062
EDAPPSDDLEQFAKQFKQRRIKLGFTQADVGLALGTLYGNVFSQTTICRFEALQLSFKNMCKLKPLLNKWLEETDSSS [S5P]	0.067 ± 0.097
EDAPRSDDLEQFAKQFKQRRIKLGFTQADVGLALGTLYGNVFSQTTICRFEALQLSFKNMCKLKPLLNKWLEETDSSS [S5R]	0.164 ± 0.046
EDAPISDDLEQFAKQFKQRRIKLGFTQADVGLALGTLYGNVFSQTTICRFEALQLSFKNMCKLKPLLNKWLEETDSSS [S5I]	-0.234 ± 0.17
EDAPMSDDLEQFAKQFKQRRIKLGFTQADVGLALGTLYGNVFSQTTICRFEALQLSFKNMCKLKPLLNKWLEETDSSS [S5M]	0.141 ± 0.078
EDAPKSDDLEQFAKQFKQRRIKLGFTQADVGLALGTLYGNVFSQTTICRFEALQLSFKNMCKLKPLLNKWLEETDSSS [S5K]	0.07 ± 0.074
EDAPASDDLEQFAKQFKQRRIKLGFTQADVGLALGTLYGNVFSQTTICRFEALQLSFKNMCKLKPLLNKWLEETDSSS [S5A]	0.048 ± 0.062
EDAPESDDLEQFAKQFKQRRIKLGFTQADVGLALGTLYGNVFSQTTICRFEALQLSFKNMCKLKPLLNKWLEETDSSS [S5E]	0.111 ± 0.071
EDAPCSDDLEQFAKQFKQRRIKLGFTQADVGLALGTLYGNVFSQTTICRFEALQLSFKNMCKLKPLLNKWLEETDSSS [S5C]	0.113 ± 0.093
EDAPFSDDLEQFAKQFKQRRIKLGFTQADVGLALGTLYGNVFSQTTICRFEALQLSFKNMCKLKPLLNKWLEETDSSS [S5F]	-0.143 ± 0.17
EDAPSQDDLEQFAKQFKQRRIKLGFTQADVGLALGTLYGNVFSQTTICRFEALQLSFKNMCKLKPLLNKWLEETDSSS [S6Q]	0.436 ± 0.087
EDAPSEDDLEQFAKQFKQRRIKLGFTQADVGLALGTLYGNVFSQTTICRFEALQLSFKNMCKLKPLLNKWLEETDSSS [S6E]	0.223 ± 0.069

Variant	abundance fitness
EDAPSFDDLEQFAKQFKQRRIKLGFTQADVGLALGTLYGNVFSQTTICRFEALQLSFKNMCKLKPLLNKWLEETDSSS [S6F]	0.355 ± 0.15
EDAPSKDDLEQFAKQFKQRRIKLGFTQADVGLALGTLYGNVFSQTTICRFEALQLSFKNMCKLKPLLNKWLEETDSSS [S6K]	0.49 ± 0.067
EDAPSHDDLEQFAKQFKQRRIKLGFTQADVGLALGTLYGNVFSQTTICRFEALQLSFKNMCKLKPLLNKWLEETDSSS [S6H]	0.308 ± 0.14
EDAPSTDDLEQFAKQFKQRRIKLGFTQADVGLALGTLYGNVFSQTTICRFEALQLSFKNMCKLKPLLNKWLEETDSSS [S6T]	0.38 ± 0.084
EDAPSDDDLEQFAKQFKQRRIKLGFTQADVGLALGTLYGNVFSQTTICRFEALQLSFKNMCKLKPLLNKWLEETDSSS [S6D]	0.125 ± 0.096
EDAPSADDLEQFAKQFKQRRIKLGFTQADVGLALGTLYGNVFSQTTICRFEALQLSFKNMCKLKPLLNKWLEETDSSS [S6A]	0.427 ± 0.051
EDAPSRDDLEQFAKQFKQRRIKLGFTQADVGLALGTLYGNVFSQTTICRFEALQLSFKNMCKLKPLLNKWLEETDSSS [S6R]	0.365 ± 0.047
EDAPSPDDLEQFAKQFKQRRIKLGFTQADVGLALGTLYGNVFSQTTICRFEALQLSFKNMCKLKPLLNKWLEETDSSS [S6P]	0.162 ± 0.11
EDAPSIDDLEQFAKQFKQRRIKLGFTQADVGLALGTLYGNVFSQTTICRFEALQLSFKNMCKLKPLLNKWLEETDSSS [S6I]	0.346 ± 0.13
EDAPSGDDLEQFAKQFKQRRIKLGFTQADVGLALGTLYGNVFSQTTICRFEALQLSFKNMCKLKPLLNKWLEETDSSS [S6G]	0.321 ± 0.041
EDAPSMDDLEQFAKQFKQRRIKLGFTQADVGLALGTLYGNVFSQTTICRFEALQLSFKNMCKLKPLLNKWLEETDSSS [S6M]	0.473 ± 0.07
EDAPSWDDLEQFAKQFKQRRIKLGFTQADVGLALGTLYGNVFSQTTICRFEALQLSFKNMCKLKPLLNKWLEETDSSS [S6W]	0.405 ± 0.063
EDAPSCDDLEQFAKQFKQRRIKLGFTQADVGLALGTLYGNVFSQTTICRFEALQLSFKNMCKLKPLLNKWLEETDSSS [S6C]	0.398 ± 0.14
EDAPSYDDLEQFAKQFKQRRIKLGFTQADVGLALGTLYGNVFSQTTICRFEALQLSFKNMCKLKPLLNKWLEETDSSS [S6Y]	0.043 ± 0.45
EDAPSNDDLEQFAKQFKQRRIKLGFTQADVGLALGTLYGNVFSQTTICRFEALQLSFKNMCKLKPLLNKWLEETDSSS [S6N]	0.178 ± 0.11
EDAPSSDHLEQFAKQFKQRRIKLGFTQADVGLALGTLYGNVFSQTTICRFEALQLSFKNMCKLKPLLNKWLEETDSSS [D8H]	-0.276 ± 0.41
EDAPSSDFLEQFAKQFKQRRIKLGFTQADVGLALGTLYGNVFSQTTICRFEALQLSFKNMCKLKPLLNKWLEETDSSS [D8F]	-0.481 ± 0.41
EDAPSSDGLEQFAKQFKQRRIKLGFTQADVGLALGTLYGNVFSQTTICRFEALQLSFKNMCKLKPLLNKWLEETDSSS [D8G]	-0.095 ± 0.061
EDAPSSDALEQFAKQFKQRRIKLGFTQADVGLALGTLYGNVFSQTTICRFEALQLSFKNMCKLKPLLNKWLEETDSSS [D8A]	-0.183 ± 0.079
EDAPSSDELEQFAKQFKQRRIKLGFTQADVGLALGTLYGNVFSQTTICRFEALQLSFKNMCKLKPLLNKWLEETDSSS [D8E]	-0.076 ± 0.085
EDAPSSDCLEQFAKQFKQRRIKLGFTQADVGLALGTLYGNVFSQTTICRFEALQLSFKNMCKLKPLLNKWLEETDSSS [D8C]	-0.358 ± 0.17
EDAPSSDILEQFAKQFKQRRIKLGFTQADVGLALGTLYGNVFSQTTICRFEALQLSFKNMCKLKPLLNKWLEETDSSS [D8I]	-0.529 ± 0.28
